Assay results as given in PMC2588520.
Read-outs that look alike come from different tables or passages of the source.

Key:
[1] = target: T1, UP1 (proteolytic product of hnRNP A1) (UniProt P09651 1-196); assay: EMSA
[2] = target: T1, UP1 (proteolytic product of hnRNP A1); assay: EMSA; remark: listed apart in the source

T1 sequence (P09651 1-196): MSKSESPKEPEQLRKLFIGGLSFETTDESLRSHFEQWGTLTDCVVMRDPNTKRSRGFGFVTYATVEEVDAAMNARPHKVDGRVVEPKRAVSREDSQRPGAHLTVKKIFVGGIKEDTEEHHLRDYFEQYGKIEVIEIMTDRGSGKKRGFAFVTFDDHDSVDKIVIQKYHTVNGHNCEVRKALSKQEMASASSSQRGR

## UGAGAAGGGCGUAGG (ssRNA) [15-mer telomerase RNA]
[1]
  binding result: binds
[2]
  binding result: binds
